T1: recombinant human NOTCH1 protein (human, UniProt P46531 1426-1731, limits assumed)
T1 construct: NOTCH1 proteins'
T1 sequence (looked up): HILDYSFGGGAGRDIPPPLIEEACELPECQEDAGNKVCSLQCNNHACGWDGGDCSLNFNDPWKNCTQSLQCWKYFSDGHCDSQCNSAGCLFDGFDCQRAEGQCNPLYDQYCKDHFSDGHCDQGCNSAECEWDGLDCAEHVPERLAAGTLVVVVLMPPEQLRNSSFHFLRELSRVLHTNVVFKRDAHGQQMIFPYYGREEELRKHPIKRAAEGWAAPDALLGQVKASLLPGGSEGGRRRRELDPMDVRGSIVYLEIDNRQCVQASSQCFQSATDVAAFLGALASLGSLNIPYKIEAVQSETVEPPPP

B1: murine monoclonal antibody 52M51 (antibody, mouse IgG1, V domains shown)
VH: QVQLQQSGAELMKPGASVKISCKAAGYTMRGYWIEWIKQRPGHGLEWIGQILPGTGRTNYNEKFKGKATFTADTSSNTANMQLSSLTSEDSAVYYCARFDGNYGYYAMDYWGQGSSVTVSS
VL: QAVVTQESALTTSPGETVTLTCRSSTGAVTTSNYANWVQEKPDHLFTGLIGGTNNRAPGVPARFSGSLIGDKAALTITGAQTEDEAIYFCALWYSNHWVFGGGTKLTVLG
notes: Mouse antibody purified from hybridoma supernatant; also called 52M51 anti-NOTCH1 antibody; ATCC PTA-9405
B2: humanized antibody 52M51-H4L3 (antibody, human IgG2, lambda, V domains shown)
VH: QVQLVQSGAEVKKPGASVKISCKVSGYTLRGYWIEWVRQAPGKGLEWIGQILPGTGRTNYNEKFKGRVTMTADTSTDTAYMELSSLRSEDTAVYYCARFDGNYGYYAMDYWGQGTTVTVSS
VL: SQAVVTQEPSLTVSPGGTVTLTCRSSTGAVTTSNYANWFQQKPGQAPRTLIGGTNNRAPGVPARFSGSLLGGKAALTLSGAQPEDEAEYYCALWYSNHWVFGGGTKLTVLG
notes: Human IgG2 heavy chain and lambda (IgLC1) light chain; also called OMP-52M51; ATCC PTA-9549
B3: humanized antibody 52M51-H4L4 (antibody, human IgG2, lambda, V domains shown)
VH: B2 VH
VL: SQTVVTQEPSFSVSPGGTVTLTCRSSTGAVTTSNYANWYQQTPGQAPRTLIGGTNNRAPGVPDRFSGSILGNKAALTITGAQADDESDYYCALWYSNHWVFGGGTKLTVLG
notes: Human IgG2 heavy chain and lambda (IgLC1) light chain

Target: T1, recombinant human NOTCH1 protein
Test: SPR (Biacore 2000), NOTCH1 protein amine-coupled to chip, IgG injected
Description: The affinities for human and mouse NOTCH11 were determined using a Biacore 2000 instrument. Briefly, recombinant human and mouse NOTCH1 proteins were immobilized on a CMS chip using standard amine based chemistry (NHS/EDC). Different antibody concentrations were injected over the protein surfaces and kinetic data were collected over time. The data was fit using the simultaneous global fit equation to yield dissociation constants (KD, nM) for each NOTCH1 protein (Table 2).

Binder | Kd [nM]
B1 | 2.86
B2 | 4.33
B3 | 7.35

From US20150232570A1 (ONCOMED PHARMACEUTICALS, published 2015)
